Results as given in PMC9728202, “Molecular and Enzymatic Features of Homoserine Dehydrogenase from Bacillus subtilis” (Journal of Microbiology and Biotechnology, 2020).

Columns and labels:
purified protein [1] = substrate: NC(=O)c1ccc[n+]([C@@H]2O[C@H](COP(=O)(O)OP(=O)(O)OC[C@H]3O[C@@H](n4cnc5c(N)ncnc54)[C@H](OP(=O)(O)O)[C@@H]3O)[C@@H](O)[C@H]2O)c1; assay: purified protein; format: biochemical, Bacillus subtilis; conditions: oxidation, 100 mM L-homoserine, pH 9.0, 400 mM NaCl, 25°C, apparent, varied: cofactor
purified protein [2] = substrate: N[C@@H](CCO)C(=O)O; assay: purified protein; format: biochemical, Bacillus subtilis; conditions: oxidation, 2 mM NADP+, pH 9.0, 400 mM NaCl, 25°C, apparent
[3] = target: the molecule itself; assay: SEC; Superdex-200 10/300 GL, 20 mM Tris-HCl pH 8.0, 0.1 mM TCEP, 400 mM NaCl, 0.5 mL/min; mass from a standard curve of standard proteins

B1: Homoserine dehydrogenase from Bacillus subtilis (enzyme, Bacillus subtilis strain 168, UniProt P19582 1-433, looked up)
chain: MKAIRVGLLGLGTVGSGVVKIIQDHQDKLMHQVGCPVTIKKVLVKDLEKKREVDLPKEVLTTEVYDVIDDPDVDVVIEVIGGVEQTKQYLVDALRSKKHVVTANKDLMAVYGSELLAEAKENGCDIYFEASVAGGIPILRTLEEGLSSDRITKMMGIVNGTTNFILTKMIKEKSPYEEVLKEAQDLGFAEADPTSDVEGLDAARKMAILARLGFSMNVDLEDVKVKGISQITDEDISFSKRLGYTMKLIGIAQRDGSKIEVSVQPTLLPDHHPLSAVHNEFNAVYVYGEAVGETMFYGPGAGSMPTATSVVSDLVAVMKNMRLGVTGNSFVGPQYEKNMKSPSDIYAQQFLRIHVKDEVGSFSKITSVFSERGVSFEKILQLPIKGHDELAEIVIVTHHTSEADFSDILQNLNDLEVVQEVKSTYRVEGNGWS
notes: Homoserine dehydrogenase (gene hom) of Bacillus subtilis strain 168, 433 amino acid residues; Calculated mass of the monomer printed as 48.3 kDa; Surmised: cloning through XhoI into pET26b adds Leu-Glu before the His6 tag; no removal of the tag is told; also called BsHSD; HSD; source: E. coli Rosetta2 (DE3), purified (HisTrapFF, HiPrep 26/10 Desalting, Superdex-200)
- Km (purified protein [1]): 0.39 ± 0.05 mM
- Vmax (purified protein [1]): 2.79 µmol/min/mg
- kcat (purified protein [1]): 1.1 ± 0.04 s⁻¹
- kcat/Km (purified protein [1]): 2860 ± 910 M⁻¹ s⁻¹
- Km (purified protein [2]): 35.08 ± 2.91 mM
- Vmax (purified protein [2]): 2.72 µmol/min/mg
- kcat (purified protein [2]): 1.07 ± 0.02 s⁻¹
- kcat/Km (purified protein [2]): 30 ± 10 M⁻¹ s⁻¹
- stoichiometry N [3]: 4
